The supplement of paper PMC10567573

B1: RHOBTB3 (parent)
chain: STTEGIQLAKELGATYLELHSLDD

Variants of: B1
Assay: protein stability index of a GFP-peptide fusion (GPS, HEK-293T) (PSI 1-6); higher = more stable
Details: c terminus: a fixed tail appended
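Note: lentivirally expressed fusions sorted by FACS into six bins by GFP to DsRed ratio, PSI derived from sequencing read proportions per bin multiplied by bin number.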

| Variant | protein stability index |
| --- | --- |
| STTEGIQLAKETGATYLELHSLDD | 4.88 |
| STTEGIQLAKEPGATYLELHSLDD | 4.42 |
| STTEGIQLAKEHGATYLELHSLDD | 4.78 |
| STTEGIQLAKEFGATYLELHSLDD | 3.89 |
| STTEGIQLAKEKGATYLELHSLDD | 5.07 |
| STTEGIQLAKEDGATYLELHSLDD | 5.62 |
| STTEGIQLAKEQGATYLELHSLDD | 4.31 |
| STTEGIQLAKEYGATYLELHSLDD | 4.81 |
| STTEGIQLAKEIGATYLELHSLDD | 3.92 |
| STTEGIQLAKECGATYLELHSLDD | 3.96 |
| STTEGIQLAKENGATYLELHSLDD | 4.77 |
| STTEGIQLAKEVGATYLELHSLDD | 4.43 |
| STTEGIQLAKEMGATYLELHSLDD | 4.48 |
| STTEGIQLAKESGATYLELHSLDD | 4.92 |
| STTEGIQLAKEGGATYLELHSLDD | 4.89 |
| STTEGIQLAKEAGATYLELHSLDD | 5 |
| STTEGIQLAKEEGATYLELHSLDD | 4.99 |
| STTEGIQLAKELGLTYLELHSLDD | 3.15 |
| STTEGIQLAKELGKTYLELHSLDD | 3.01 |
| STTEGIQLAKELGYTYLELHSLDD | 3.7 |
| STTEGIQLAKELGRTYLELHSLDD | 3.59 |
| STTEGIQLAKELGITYLELHSLDD | 3.31 |
| STTEGIQLAKELGHTYLELHSLDD | 4.1 |
| STTEGIQLAKELGDTYLELHSLDD | 2.87 |

| Variant | protein stability index |
| --- | --- |
| STTEGIQLAKELGSTYLELHSLDD | 4.02 |
| STTEGIQLAKELGPTYLELHSLDD | 4.28 |
| STTEGIQLAKELGNTYLELHSLDD | 3.59 |
| STTEGIQLAKELGETYLELHSLDD | 4.25 |
| STTEGIQLAKELGTTYLELHSLDD | 4.18 |
| STTEGIQLAKELGMTYLELHSLDD | 3.58 |
| STTEGIQLAKELGWTYLELHSLDD | 1.75 |
| STTEGIQLAKELGQTYLELHSLDD | 3.28 |
| STTEGIQLAKELGVTYLELHSLDD | 3.85 |
| STTEGIQLAKVLGATYLELHSLDD | 2.87 |
| STTEGIQLAKNLGATYLELHSLDD | 3.84 |
| STTEGIQLAKYLGATYLELHSLDD | 2.88 |
| STTEGIQLAKTLGATYLELHSLDD | 3.61 |
| STTEGIQLAKPLGATYLELHSLDD | 3.92 |
| STTEGIQLAKQLGATYLELHSLDD | 3.89 |
| STTEGIQLAKWLGATYLELHSLDD | 1.73 |
| STTEGIQLAKELGATKLELHSLDD | 4.81 |
| STTEGIQLAKELGATGLELHSLDD | 4.83 |
| STTEGIQLAKELGATQLELHSLDD | 4.33 |
| STTEGIQLAKELGATWLELHSLDD | 2.49 |
| STTEGIQLAKELGATELELHSLDD | 4.35 |
| STTEGIQLAKELGATILELHSLDD | 3.47 |
| STTEGIQLAKELGATSLELHSLDD | 4.84 |
| STTEGIQLAKELGATTLELHSLDD | 4.28 |

| Variant | protein stability index |
| --- | --- |
| STTEGIQLAKELGATNLELHSLDD | 5.25 |
| STTEGIQLAKELGATDLELHSLDD | 3.29 |
| STTEGIQLAKELGATPLELHSLDD | 5.66 |
| STTEGIQLAKELGATLLELHSLDD | 2.91 |
| STTEGIQLAKELGATVLELHSLDD | 3.59 |
| STTEGIQLAKELGATFLELHSLDD | 3.27 |
| STTEGIQLAKELGATHLELHSLDD | 4.25 |
| STTEGIQLAKELGATRLELHSLDD | 4.18 |
| STTEGIQLAKELGACYLELHSLDD | 3.59 |
| STTEGIQLAKELGAPYLELHSLDD | 3.37 |
| STTEGIQLAKELGAHYLELHSLDD | 2.69 |
| STTEGIQLAKELGANYLELHSLDD | 4.72 |
| STTEGIQLAKELGAGYLELHSLDD | 3.97 |
| STTEGIQLAKELGAMYLELHSLDD | 3.27 |
| STTEGIQLAKELGAFYLELHSLDD | 2.59 |
| STTEGIQLAKELGAKYLELHSLDD | 4.33 |
| STTEGIQLAKELGAVYLELHSLDD | 2.17 |
| STTEGIQLAKELGALYLELHSLDD | 2.1 |
| STTEGIQLAKELGADYLELHSLDD | 4.41 |
| STTEGIQLAKELGAEYLELHSLDD | 4.87 |
| STTEGIQLAKELGAIYLELHSLDD | 1.99 |
| STTEGIQLAKELGARYLELHSLDD | 3.83 |
| STTEGIQLAKELGAWYLELHSLDD | 2.02 |
| STTEGIQLAKELGASYLELHSLDD | 3.71 |

| Variant | protein stability index |
| --- | --- |
| STTEGIQLAKELGAYYLELHSLDD | 3.49 |
| STTEGIQLAKELGAQYLELHSLDD | 4.33 |
| STTEGIQLAKELGATYAELHSLDD | 5.04 |
| STTEGIQLAKELGATYCELHSLDD | 4.14 |
| STTEGIQLAKELNATYLELHSLDD | 2.64 |
| STTEGIQLAKELMATYLELHSLDD | 1.66 |
| STTEGIQLAKELRATYLELHSLDD | 1.66 |
| STTEGIQLAKELFATYLELHSLDD | 2.36 |
| STTEGIQLAKELHATYLELHSLDD | 2.09 |
| STTEGIQLAKELIATYLELHSLDD | 2.79 |
| STTEGIQLAKELEATYLELHSLDD | 2.73 |
| STTEGIQLAKELAATYLELHSLDD | 1.75 |
| STTEGIQLAKELCATYLELHSLDD | 2.88 |
| STTEGIQLAKELWATYLELHSLDD | 1.39 |
| STTEGIQLAKELVATYLELHSLDD | 2.52 |
| STTEGIQLAKELSATYLELHSLDD | 3.35 |
| STTEGIQLAKELDATYLELHSLDD | 4.31 |
| STTEGIQLAKELYATYLELHSLDD | 1.42 |
| STTEGIQLAKELTATYLELHSLDD | 2.72 |
| STTEGIQLAKELLATYLELHSLDD | 1.28 |
| STTEGIQLAKELPATYLELHSLDD | 4.81 |
| STTEGIQLAKELKATYLELHSLDD | 3.16 |
